Experiments:
[1] = biological target: CopR (PF0739), copper-sensing transcriptional regulator of Pyrococcus furiosus (Pyrococcus furiosus); test: SEC; Superdex 200 10/300 GL in low salt buffer (40 mM HEPES pH 7.5, 80 mM ammonium sulfate, 1 mM EDTA, 10% glycerol); elution compared to standard calibration proteins
[2] = biological target: CopRΔTRASH (PF0739 variant lacking the metal-sensing TRASH domain) (Pyrococcus furiosus); test: negative-stain transmission electron microscopy with 2D class averaging; 220 ng/μl protein, 2% uranyl acetate with 0.005% DDM; more than 50,000 particles classified in RELION 3.0; in the absence and presence of a DNA template
[3] = biological target: T1, CopR (Pyrococcus furiosus) (UniProt Q8U2U0); test: EMSA; conditions: EMSA: 20 nM DNA, 40 mM HEPES pH 7.4, 80 mM (NH4)2SO4, 670 uM DTT, 20 ug/ml BSA, 6.7% glycerol, 50 ng HindIII-digested lambda DNA, 5 min 70 C; DNase I: 4.4 nM …
T1 sequence: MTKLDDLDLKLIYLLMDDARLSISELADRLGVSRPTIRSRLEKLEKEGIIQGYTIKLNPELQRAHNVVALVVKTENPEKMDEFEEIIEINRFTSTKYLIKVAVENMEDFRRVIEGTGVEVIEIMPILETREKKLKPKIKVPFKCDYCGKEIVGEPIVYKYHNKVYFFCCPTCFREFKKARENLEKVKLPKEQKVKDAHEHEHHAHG

[4] = biological target: T2, CopRΔHIS (Pyrococcus furiosus) (UniProt Q8U2U0); test: EMSA; conditions: EMSA: 20 nM DNA, 40 mM HEPES pH 7.4, 80 mM (NH4)2SO4, 670 uM DTT, 20 ug/ml BSA, 6.7% glycerol, 50 ng HindIII-digested lambda DNA, 5 min 70 C; DNase I: 4.4 nM …
T2 sequence: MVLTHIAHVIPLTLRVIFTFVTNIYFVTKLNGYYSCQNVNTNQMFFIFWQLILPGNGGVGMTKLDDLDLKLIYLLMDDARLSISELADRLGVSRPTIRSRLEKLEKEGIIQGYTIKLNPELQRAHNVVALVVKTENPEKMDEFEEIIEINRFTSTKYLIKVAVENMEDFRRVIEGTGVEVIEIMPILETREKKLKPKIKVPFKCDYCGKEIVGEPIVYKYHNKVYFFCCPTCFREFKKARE

[5] = biological target: T3, CopRΔHISΔTRASH (Pyrococcus furiosus) (UniProt Q8U2U0); test: EMSA; conditions: EMSA: 20 nM DNA, 40 mM HEPES pH 7.4, 80 mM (NH4)2SO4, 670 uM DTT, 20 ug/ml BSA, 6.7% glycerol, 50 ng HindIII-digested lambda DNA, 5 min 70 C; DNase I: 4.4 nM …
T3 sequence: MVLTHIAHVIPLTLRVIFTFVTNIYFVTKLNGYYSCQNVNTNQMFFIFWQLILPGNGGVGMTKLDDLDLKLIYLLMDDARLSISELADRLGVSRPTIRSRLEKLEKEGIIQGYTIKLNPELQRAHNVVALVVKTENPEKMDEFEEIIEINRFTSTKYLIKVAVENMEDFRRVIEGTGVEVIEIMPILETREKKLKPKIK

[6] = biological target: T4, CopRΔTRASH internal_change (Pyrococcus furiosus) (UniProt Q8U2U0); test: EMSA; conditions: EMSA: 20 nM DNA, 40 mM HEPES pH 7.4, 80 mM (NH4)2SO4, 670 uM DTT, 20 ug/ml BSA, 6.7% glycerol, 50 ng HindIII-digested lambda DNA, 5 min 70 C; DNase I: 4.4 nM …
T4 sequence: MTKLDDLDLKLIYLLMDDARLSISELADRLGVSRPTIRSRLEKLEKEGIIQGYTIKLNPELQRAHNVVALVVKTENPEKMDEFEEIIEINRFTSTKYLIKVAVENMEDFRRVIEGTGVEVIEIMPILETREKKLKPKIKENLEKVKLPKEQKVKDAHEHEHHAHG

[7] = biological target: T1, CopR (Pyrococcus furiosus); test: DNase I footprinting; conditions: EMSA: 20 nM DNA, 40 mM HEPES pH 7.4, 80 mM (NH4)2SO4, 670 uM DTT, 20 ug/ml BSA, 6.7% glycerol, 50 ng HindIII-digested lambda DNA, 5 min 70 C; DNase I: 4.4 nM …
[8] = biological target: T5, TBP;TFB (Pyrococcus furiosus?;Pyrococcus furiosus?) (UniProt P62000+P61998); test: DNase I footprinting; conditions: EMSA: 20 nM DNA, 40 mM HEPES pH 7.4, 80 mM (NH4)2SO4, 670 uM DTT, 20 ug/ml BSA, 6.7% glycerol, 50 ng HindIII-digested lambda DNA, 5 min 70 C; DNase I: 4.4 nM …
T5 sequence 1: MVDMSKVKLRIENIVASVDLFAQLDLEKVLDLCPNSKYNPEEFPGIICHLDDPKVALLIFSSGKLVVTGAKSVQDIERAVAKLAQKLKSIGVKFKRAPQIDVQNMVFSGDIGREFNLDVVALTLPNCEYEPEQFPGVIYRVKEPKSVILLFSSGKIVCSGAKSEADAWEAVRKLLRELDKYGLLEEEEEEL
T5 sequence 2: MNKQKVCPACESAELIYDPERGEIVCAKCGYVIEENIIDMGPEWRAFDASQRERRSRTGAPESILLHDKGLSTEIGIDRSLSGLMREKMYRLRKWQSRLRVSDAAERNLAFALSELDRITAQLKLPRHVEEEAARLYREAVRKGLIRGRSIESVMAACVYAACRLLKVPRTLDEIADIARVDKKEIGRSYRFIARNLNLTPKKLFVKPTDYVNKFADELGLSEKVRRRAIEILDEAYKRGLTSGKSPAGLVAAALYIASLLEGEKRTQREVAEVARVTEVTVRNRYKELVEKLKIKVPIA

Substance: CopR (PF0739), copper-sensing transcriptional regulator of Pyrococcus furiosus (natural protein)
- stoichiometry N [1]: 8

Substance: CopRΔTRASH (PF0739 variant lacking the metal-sensing TRASH domain) (natural protein)
- stoichiometry N [2]: 8

Substance: GAGTGATCTTCACTTTCGTCACCAATATTTACTTTGTGACGAAACTTAATGGGTATTATTCATGCCAAAATGTAAACACTAACCAAATGTTTTTTATATTTTGGCAACTAATACTCCCAGGGAATGGGGGTGTTGGAATGACCAAGTTAGATG (double strand) [copR/copA intergenic promoter region (EMSA)]
- binding [3]: binds
- binding [4]: binds
- binding [5]: binds
- binding [6]: binds

Substance: GAGTGATCTTCACTTTCGTCACCAATATTTACTTTGTGACGAAACTTAATGGGTATTATTCATGCCAAAATGTAAACACTAACCAAATGTTTTTTATATTTTGGCAACTAATACTCCCAGGGAATGGGGGTGTTGGAATGACCAAGTTAGATG (double strand) [copR/copA promoter region (DNase I footprint)]
- binding [7]: binds
- binding [8]: binds
